Drawing on paper PMC6972895, this text covers percent of the total FLAG signal as free monomer for one molecule.

The test addresses Chaperonin-containing TCP-1 (CCT) oligomeric complex (human (endogenous in T47D)) (UniProt P17987). The experiment in a line: native gel or EMSA; native PAGE of T47D CCT2-FLAG cell lysates; blotted for FLAG, CCT2 and CCT3; oligomeric complex against free monomer. A general note: In EMSA bound probe runs differently from free probe, usually more slowly.

B1: CCT2-FLAG (FLAG-tagged CCT2, FLAG tag on the C-terminal of CCT2) (natural protein)
chain: MASLSLAPVNIFKAGADEERAETARLTSFIGAIAIGDLVKSTLGPKGMDKILLSSGRDASLMVTNDGATILKNIGVDNPAAKVLVDMSRVQDDEVGDGTTSVTVLAAELLREAESLIAKKIHPQTIIAGWREATKAAREALLSSAVDHGSDEVKFRQDLMNIAGTTLSSKLLTHHKDHFTKLAVEAVLRLKGSGNLEAIHIIKKLGGSLADSYLDEGFLLDKKIGVNQPKRIENAKILIANTGMDTDKIKIFGSRVRVDSTAKVAEIEHAEKEKMKEKVERILKHGINCFINRQLIYNYPEQLFGAAGVMAIEHADFAGVERLALVTGGEIASTFDHPELVKLGSCKLIEEVMIGEDKLIHFSGVALGEACTIVLRGATQQILDEAERSLHDALCVLAQTVKDSRTVYGGGCSEMLMAHAVTQLANRTPGKEAVAMESYAKALRMLPTIIADNAGYDSADLVAQLRAAHSEGNTTAGLDMREGTIGDMAILGITESFQVKRQVLLSAAEAAEVILRVDNIIKAAPRKRVPDHHPC
The molecule B1 returned a percent of the total FLAG signal as free monomer of 24%.
